# According to article PMC10503714:
# Target: stressed NISTmAb monoclonal antibody
# Assay: AUC; sedimentation velocity at 50,000 rpm and 20°C; c(s) analysis in SEDFIT, by command line operation and repeated by manual operation on the same data; stressed, partially denatured sample
substance,measurement,value
stressed NISTmAb monoclonal antibody,percent of signal in higher aggregates (command line analysis),51.8%
same,percent of signal in higher aggregates (manual analysis),51.7%
same,percent of signal in the dimer peak,12.5%
same,stoichiometry N,2
